Measured values from paper PMC7885398, “Multi-carbon dots and aptamer based signal amplification ratiometric fluorescence probe for protein tyrosine kinase 7 detection”.

Target: T1, Protein tyrosine kinase 7 (PTK 7) (UniProt Q13308 31-704)
T1 sequence: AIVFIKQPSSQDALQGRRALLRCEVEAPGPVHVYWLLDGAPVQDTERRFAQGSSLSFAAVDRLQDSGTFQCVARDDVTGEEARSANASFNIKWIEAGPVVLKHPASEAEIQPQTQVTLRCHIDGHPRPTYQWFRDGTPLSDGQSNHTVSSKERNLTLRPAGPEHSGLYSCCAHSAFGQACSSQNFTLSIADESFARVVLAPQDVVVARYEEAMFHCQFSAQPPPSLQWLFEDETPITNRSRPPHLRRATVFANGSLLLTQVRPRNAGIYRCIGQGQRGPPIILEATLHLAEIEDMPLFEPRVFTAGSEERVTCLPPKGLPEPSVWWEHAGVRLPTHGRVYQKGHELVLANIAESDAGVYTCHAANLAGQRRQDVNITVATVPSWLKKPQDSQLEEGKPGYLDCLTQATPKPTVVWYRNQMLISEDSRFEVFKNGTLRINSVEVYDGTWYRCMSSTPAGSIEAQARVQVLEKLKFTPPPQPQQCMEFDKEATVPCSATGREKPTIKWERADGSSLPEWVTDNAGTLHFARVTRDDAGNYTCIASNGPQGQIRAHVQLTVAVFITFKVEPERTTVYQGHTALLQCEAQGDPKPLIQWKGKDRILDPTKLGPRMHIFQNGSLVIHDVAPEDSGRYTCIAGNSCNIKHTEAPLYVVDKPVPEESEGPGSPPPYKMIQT
Experiment: competition: displacement of y-CDs-APT from Fe3O4-cDNA, ratiometric fluorescence; Fe3O4-cDNA (S2) competitor strand; PTK7 0.1-200 ng/mL, LOD 0.016 ng/mL; Buffer, salt and pH not given in material; probe hybridisation 25 °C, 60 min; DNase I amplification
Details: protein: recombinant; label: y-CDs (emission 580 nm); assayed pre-hybridised to partly complementary cDNA S2 on Fe3O4; PTK7 displaces S2

## ATCTAACTGCTGCGCCGCCGGGAAAATACTGTACGGTTAGA (ssDNA, conjugated to yellow carbon dots (y-CDs); attachment end not stated) [APT (PTK7 aptamer), as y-CDs-APT]
  binding result: binds
